From the supplement of paper PMC9170038

Tested on: MS2 coat protein
Assay: apparent KD of MS2 coat protein; designed switch direction (-1 OFF switch, 1 ON switch): -1; higher = weaker reporter binding
In short: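 SNAP-549-labelled MS2 coat protein was titrated, doubling from 0.7 or 1.5 nM to 3 µM, over designed RNA switches transcribed on Illumina chips by stalled E. coli RNA polymerase. Runs were done without input, with 200 uM small-molecule ligand, or with an oligonucleotide input. Apparent KD is the per-design median over clusters of curve-fitted normalised fluorescence.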

[1] = input ligand: microRNA oligo, concentration not stated
[2] = Eterna round: R95, input ligand: microRNA oligo, concentration not stated
[3] = Eterna round: R95, input ligand: FMN 200 uM
[4] = Eterna round: R95, input ligand: none

| Sequence | apparent KD of MS2 coat protein (input ligand: FMN 200 uM) [nM] | apparent KD of MS2 coat protein [1] [nM] | apparent KD of MS2 coat protein (input ligand: none) [nM] | apparent KD of MS2 coat protein [2] [nM] | apparent KD of MS2 coat protein [3] [nM] | apparent KD of MS2 coat protein [4] [nM] |
| --- | --- | --- | --- | --- | --- | --- |
| CUUGUUUAUGUAGGAUAUGCCUGGCGUGCCUUUGCAGAAGGACAUGAGGAUCACCCAUGUAACAUGAGGAUCACCCAUGUCGCA [salish99_ExNG1_r04_103] (Eterna round: R96, puzzle: Exclusion NG 1) | 1190 | 555 | 854 | – | – | – |
| ACAUGAUCAGGAUAUACAUGAGGAUCACCCAUGUAAAUCAAAAAAAAACUUUCUUUAUGUAGAAGGGAUCUUGU [EX3 270: Random 6] (Eterna round: R96, puzzle: Exclusion 3) | 15.2 | 13.6 | 15.3 | – | – | – |
| AGAUGCUCAAGUCGACAUGAGGAUCACCCAUGUACAGUUAAUGAGGAUAUCCGAGAUAAAUAAUAGGAGAAGGCGUGAACAUGA [Ex NG3 #8] (Eterna round: R96, puzzle: Exclusion NG 3) | 72.4 | 50.6 | 94.1 | – | – | – |
| GCUGGGUCAGGAUAUACAGGGUCGAAAGAUCUGUGAUACCUACAUGAGGAUCACCCAUGUAGAAGGGACUGGGC [ChP 11-04-2015 #10] (Eterna round: R96, puzzle: Exclusion 2) | 43.9 | 14 | 18.9 | – | – | – |
| UUUUUUGGGCAAGGAUAUCCUGUGCGGUUCCGGCUCGUGUCUGUUACAUGAGGAUCACCCAUGUGGGAGAAGGUGCCUGCGGUU [Design 85] (Eterna round: R96, puzzle: Exclusion NG 2) | 172 | 31.1 | 34.9 | – | – | – |
| AAAGUUCGAGGAUAUCUACUUAGCUACAUGAGGAUCACCCAUGUUAUCCUCCCGCUGGGAAGAGAAGGCGGUUAAA [Xeonceso] (Eterna round: R96, puzzle: Exclusion 5) | 138 | 27.1 | 34.1 | – | – | – |
| CCAUGGAGUGUGAGGAUAUGCUGGUCCUUGGAUCAGCAGAAGGCACAUGAGGAUCACCCAUGUGAAUACCGUGG [Mat - Exclusion 4 - JL Mod - D83] (puzzle: Brourd's mod of Exclusion 4) | – | – | – | 31.4 | – | – |
| AGUACUAACACGAGAGUGUUAGUACUAUAAGCUUGUGUUACAUGAGGAUCACCCAUGUCCUCAUAAGCUCGUCUUAG [Mat - Sensor v3 - Turn-off var 2 - D67] (puzzle: Sensor v3, turn-off variant 2) | – | – | – | 99 | 39.3 | 44.6 |
| CUGAGGUAGCGGUCCUAUGACAUGAGGAUCACCCAUGUGCCUCGCUACAAGCUUUUUGCUCGUUUUAUGAUUCUCGG [JL Atriat mod 11] (puzzle: Sensor v3, turn-off variant 1) | – | – | – | 90.1 | 71.2 | 95.3 |
| ACAUGAGGAUCACCCAUGUCAGGUUGGUUCUCUCCGGCUGUUGAGGAUAUAGUCCGGUAUCCGCGCUAGAAGGUGAGGGCUGGC [Aenatbe mod 14] (Eterna round: R96, puzzle: Exclusion NG 3) | 19.6 | 20.1 | 25.1 | – | – | – |
| UCAAUUUUGACAGGAUAUAGUUUUUGUUUCUCUCUAGAAGGGUCUGUGUACAUGAGGAUCACCCAUGUUCUUCUUAUUUAUAUU [JR_ExcNG1_Sub014] (Eterna round: R96, puzzle: Exclusion NG 1) | 28.4 | 28.6 | 36.7 | – | – | – |
| GUAUAAUGAGUCAGGAUAUUGAUGACGCUAGGACACAAGAAGGGACAUGAGGAUCACCCAUGUUAUUAUGCGGU [Eternabot (L2) Solution 29] (Eterna round: R97, puzzle: Brourd's mod of Exclusion 4) | 88.2 | – | 63.9 | – | – | – |
| CAGGUGUUAGGAUAUCGGAGAUCGAGACCGACGGGAUGAGCCGAGAAGGAACAUGAGGAUCACCCAUGUAGGUG [JR_Exclu4_Sub034] (puzzle: Exclusion 4) | – | – | – | 400 | 166 | 414 |
| CCGAUAAUGUAGGAUAUCGUAUCGGAAACGAUACGAGAAGGACAAACAUGAGGAUCACCCAUGUUCCUUAACGG [Mat - Exclusion 6 - Eli Mod - D73] (puzzle: Exclusion 6) | – | – | – | 15 | – | – |
| GUAAACGAAGAGGAUAUUUGAUAUCAAAGCUUCAAAGAAGGCUUCACAUGAGGAUCACCCAUGUGAUCUUCAAG [Mat - Exclusion 6 - JL Mod - D17] (Eterna round: R97, puzzle: Exclusion 6) | 404 | – | 28.4 | – | – | – |
| UCGCCGCCCUUGGGCGGCGACAUGAGGAUCACCCAUGUCAAGCUUUUUGCUCGUUUUAUUGCCGGCCUUGGCCGGCU [Olib_2] (Eterna round: R97, puzzle: Sensor, turn-off variant 1) | 28.3 | – | 33.2 | – | – | – |
| GGAGAGAAACAGGAUAUGGGAGGGAGGACCGGACCAGAAGGGUUGACAUGAGGAUCACCCAUGUAGAGAUCCUC [AK-MS2ROC-r4-exclusion6-6.7] (Eterna round: R97, puzzle: Exclusion 6) | 486 | – | 1700 | – | – | – |
| CUGCUCCGUGUAGGAUAUGCGCGCACCACCCGCGCAGAAGGACAUGAGGAUCACCCAUGUAUGUUAUUAUCACGUGAGGCGCGC [Design 37] (Eterna round: R96, puzzle: Exclusion NG 1) | 16.8 | 10.9 | 18 | – | – | – |
| AGGAAGCAAGGAUAUACGAGGAGAAGGUGGAGAGUUAAAGGACAUGAGGAUCACCCAUGUAGAAGGUGCGAGAA [JR_Exclu2_Sub045] (puzzle: Exclusion 2) | – | – | – | 52.2 | – | – |
| GAAAAGUGAGGAUAUUGUUUUUUUUUGAAAACGGGAGAGGGCAAGAAGGCACAUGAGGAUCACCCAUGUAAGGU [Alacar 2] (Eterna round: R97, puzzle: Exclusion 4) | 66.4 | – | 44.1 | – | – | – |
| UGCUGACGAGGAUAUACAUGAGGAUCACCCAUGUUGGUCAAGCGACGAUAGUCGCAAUGUAGAAGGUGUCAGCA [E3/8-B1] (Eterna round: R97, puzzle: Exclusion 3) | 694 | – | 114 | – | – | – |
| AGUUAGAUAGGAUAUGCCCGAGAUAACAUGAGGAUCACCCAUGUGACCGAGUCUAUUCUAGCAGAAGGGUUUAUGA [Mod of ViennaUCT 20 - Jieux - Exclusion 5] (Eterna round: R97, puzzle: Exclusion 5) | 17.8 | – | 18.3 | – | – | – |
| CACAAGCUUUUUUGUUGCUUUUUAGUUGGUGUGUGAUUUACAUGAGGAUCACCCAUGUUAUUGAUGCUCGAUCUUUU [JR_SV3TOV2_Sub082] (puzzle: Sensor v3, turn-off variant 2) | – | – | – | 143 | 71.1 | 97.3 |
| CACCGUAACAGAGGAUAUCAAACAUGAGGAUCACCCAUGUAAUAAAUGAGAAUUUCGAAUGUACCUGAGAAGGCUGAAACCGGC [Ostricism 83 - Jieux - Exclusion NG 2] (Eterna round: R96, puzzle: Exclusion NG 2) | – | 25.9 | – | – | – | – |
| UCUUUGUUUGUGAGGAUAUCGGUGGGAUGGGUUGUCGAGAAGGCACAUGAGGAUCACCCAUGUGAGGGACAGCA [JR_BMEx4_Sub028] (Eterna round: R97, puzzle: Brourd's mod of Exclusion 4) | 16.6 | – | 16.2 | – | – | – |
| GGUUGGCGAGGAUAUACAUGAGGAUCACCCAUGUGAGAGACAAAAGUGAGGAAGAAAAGUAGAAGGCGCUGACG [salish99_ex3_r3_022] (puzzle: Exclusion 3) | – | – | – | 84.5 | 2000 | 232 |
| UGCGGGCUUCUGAGACCUCACAUGAGGAUCACCCAUGUGCUUGUCUUGUAAGUGGGUAGGUCGUUGGCUGACUCACA (Eterna round: R97, puzzle: Sensor, turn-off variant 1) | 18.2 | – | 17.8 | – | – | – |
| UUUAGUUCAGGAUAUGUAGAUAUUAACAUGAGGAUCACCCAUGUCGAUCCUGAAUUAACUACAGAAGGGAACAUUU [Mod of Brourd 5 - Jieux - Exclusion 5] (Eterna round: R97, puzzle: Exclusion 5) | 69.6 | – | 17.8 | – | – | – |
| UUUUUAUAUGAAGGAUAUACUUAACAUGAGGAUCACCCAUGUGGUGUUGUGAGUGAGUGAGUUUAGUAGAAGGUCAAAUAUUUU [JMF's solution 7] (Eterna round: R96, puzzle: Exclusion NG 2) | 583 | 194 | 270 | – | – | – |
| AGUUGGCGAGGAUAUACAUGAGGAUCACCCAUGUGAGAGAUACUAGUGAGGUCGAUUGGUAGAAGGCGCUGACG [Mat - Exclusion 3 - Mod of JL D79] (puzzle: Exclusion 3) | – | – | – | 104 | 222 | 151 |
